Experiments:
[1] = target: HLA-A*02:19; test: IEDB peptide-MHC binding, purified MHC/competitive/fluorescence; filed as Kd, often an IC50 or EC50 that approximates it; ≥ and ≤ were set here for values at or beyond the usual limits of such assays
[2] = target: HLA-A*02:01; test: as above
[3] = target: HLA-B*35:01; test: IEDB peptide-MHC binding, purified MHC/direct/fluorescence; filed as Kd, often an IC50 or EC50 that approximates it; ≥ and ≤ were set here for values at or beyond the usual limits of such assays
[4] = target: HLA-A*30:01; test: as above; conditions: source organism: Salmonella enterica subsp. enterica serovar Typhi
[5] = target: HLA-B*58:01; test: as above
[6] = target: HLA-A*26:01; test: as above
[7] = target: HLA-A*02:01; test: as above
[8] = target: HLA-A*24:03; test: as above
[9] = target: HLA-A*01:01; test: as above
[10] = target: HLA-A*69:01; test: as above
[11] = target: HLA-B*08:01; test: as above
[12] = target: HLA-B*40:01; test: as above
[13] = target: HLA-A*31:01; test: as above
[14] = target: HLA-A*03:01; test: as above
[15] = target: HLA-B*15:01; test: as above
[16] = target: HLA-A*11:01; test: as above
[17] = target: HLA-B*27:05; test: as above
[18] = target: HLA-C*12:03; test: as above
[19] = target: HLA-A*29:02; test: IEDB peptide-MHC binding, purified MHC/competitive/fluorescence; filed as Kd, often an IC50 or EC50 that approximates it; ≥ and ≤ were set here for values at or beyond the usual limits of such assays; conditions: source organism: Salmonella enterica subsp. enterica serovar Choleraesuis str. SC-B67
[20] = target: HLA-A*26:01; test: as above; conditions: source organism: Salmonella enterica subsp. enterica serovar Choleraesuis str. SC-B67
[21] = target: HLA-A*23:01; test: as above; conditions: source organism: Salmonella enterica subsp. enterica serovar Choleraesuis str. SC-B67
[22] = target: HLA-A*24:03; test: as above
[23] = target: HLA-B*18:01; test: as above; conditions: source organism: Salmonella enterica subsp. enterica serovar Choleraesuis str. SC-B67
[24] = target: HLA-B*39:01; test: as above; conditions: source organism: Salmonella enterica subsp. enterica serovar Choleraesuis str. SC-B67
[25] = target: HLA-A*03:01; test: as above; conditions: source organism: Salmonella enterica subsp. enterica serovar Choleraesuis str. SC-B67
[26] = target: HLA-B*15:17; test: as above; conditions: source organism: Salmonella enterica subsp. enterica serovar Choleraesuis str. SC-B67
[27] = target: HLA-B*15:01; test: as above; conditions: source organism: Salmonella enterica subsp. enterica serovar Choleraesuis str. SC-B67
[28] = target: HLA-B*46:01; test: as above; conditions: source organism: Salmonella enterica subsp. enterica serovar Choleraesuis str. SC-B67
[29] = target: HLA-B*57:01; test: as above; conditions: source organism: Salmonella enterica subsp. enterica serovar Choleraesuis str. SC-B67
[30] = target: HLA-B*27:03; test: as above; conditions: source organism: Salmonella enterica subsp. enterica serovar Choleraesuis str. SC-B67
[31] = target: HLA-A*02:12; test: as above; conditions: source organism: Burkholderia pseudomallei 668
[32] = target: HLA-B*07:02; test: IEDB peptide-MHC binding, purified MHC/direct/fluorescence; filed as Kd, often an IC50 or EC50 that approximates it; ≥ and ≤ were set here for values at or beyond the usual limits of such assays
[33] = target: HLA-B*15:17; test: as above
[34] = target: HLA-B*57:01; test: as above
[35] = target: HLA-C*06:02; test: as above
[36] = target: HLA-B*83:01; test: IEDB peptide-MHC binding, purified MHC/competitive/fluorescence; filed as Kd, often an IC50 or EC50 that approximates it; ≥ and ≤ were set here for values at or beyond the usual limits of such assays; conditions: source organism: Burkholderia mallei SAVP1
[37] = target: HLA-B*45:06; test: as above; conditions: source organism: Burkholderia mallei SAVP1
[38] = target: HLA-B*15:42; test: as above; conditions: source organism: Burkholderia mallei SAVP1
[39] = target: HLA-C*05:01; test: IEDB peptide-MHC binding, purified MHC/direct/fluorescence; filed as Kd, often an IC50 or EC50 that approximates it; ≥ and ≤ were set here for values at or beyond the usual limits of such assays
[40] = target: HLA-B*48:01; test: as above; conditions: source organism: West Nile virus
[41] = target: HLA-B*44:02; test: as above
[42] = source organism: Acinetobacter baylyi
[43] = source organism: Salmonella enterica subsp. enterica serovar Typhi
[44] = source organism: Salmonella enterica
[45] = source organism: Salmonella enterica subsp. enterica serovar Choleraesuis str. SC-B67
[46] = source organism: Rickettsia prowazekii
[47] = source organism: Rickettsia felis
[48] = source organism: Burkholderia thailandensis
[49] = source organism: Brucella melitensis
[50] = source organism: Brucella abortus 2308
[51] = source organism: Vibrio parahaemolyticus

DLMLLSYSL
Kd [1, 42]: 0.0141 µM
Kd [2, 42]: 0.16 µM

EHFYWGSVF
Kd [3, 43]: 0.427 µM
Kd [4]: 19.2 µM
Kd [5, 44]: ≥ 20 µM
Kd [6, 44]: ≥ 20 µM
Kd [7, 44]: ≥ 20 µM
Kd [8, 43]: 0.318 µM
Kd [9, 44]: ≥ 20 µM
Kd [10, 44]: ≥ 20 µM
Kd [11, 44]: ≥ 20 µM
Kd [12, 44]: ≥ 20 µM
Kd [13, 44]: ≥ 20 µM
Kd [14, 44]: ≥ 20 µM
Kd [15, 43]: 1.89 µM
Kd [16, 43]: 7.98 µM
Kd [17, 44]: ≥ 20 µM

FTRDTGATL
Kd ([18]; source organism: Mycobacterium tuberculosis variant bovis BCG str. Pasteur 1173P2): ≤ 0.001 µM

GIALAVPCV
Kd [1, 45]: 0.0018 µM
Kd [19]: 3 µM
Kd [20]: ≥ 20 µM
Kd [21]: ≥ 20 µM
Kd [2, 45]: 0.0007 µM
Kd [22, 45]: ≥ 20 µM
Kd [23]: ≥ 20 µM
Kd [24]: ≥ 20 µM
Kd [25]: ≥ 20 µM
Kd [26]: ≥ 20 µM
Kd [27]: ≥ 20 µM
Kd [28]: ≥ 20 µM
Kd [29]: ≥ 20 µM
Kd [30]: ≥ 20 µM

GIYGAVIPL
Kd ([2]; source organism: Burkholderia pseudomallei 668): ≤ 0.0001 µM
Kd [31]: 0.0086 µM

GSFKEYVFW
Kd [3, 46]: 1.9 µM
Kd [32, 47]: ≥ 20 µM
Kd [5, 46]: 0.00781 µM
Kd [6, 47]: ≥ 20 µM
Kd [7, 47]: ≥ 20 µM
Kd [9, 47]: ≥ 20 µM
Kd [10, 47]: ≥ 20 µM
Kd [11, 47]: ≥ 20 µM
Kd [12, 47]: ≥ 20 µM
Kd [13, 47]: ≥ 20 µM
Kd [14, 47]: ≥ 20 µM
Kd [33, 47]: 0.105 µM
Kd [15, 46]: 5.69 µM
Kd [34, 47]: 0.167 µM
Kd [16, 47]: ≥ 20 µM
Kd [17, 47]: ≥ 20 µM

IRHNKDRKV
Kd ([35]; source organism: Mus musculus): 0.026 µM

MALATGLWW
Kd [5, 48]: 0.0005 µM
Kd [33, 48]: 0.0004 µM
Kd ([34]; source organism: Burkholderia mallei ATCC 23344): 0.033 µM
Kd [36]: ≥ 5 µM
Kd [37]: ≥ 5 µM
Kd [38]: ≥ 5 µM

MTIGMANLI
Kd ([39]; source organism: Influenza A virus (A/California/04/2009(H1N1))): ≥ 20 µM

RRSRRSLTV
Kd [40]: ≥ 20 µM
Kd ([35]; source organism: West Nile virus): 0.036 µM

TPPVDRMAV
Kd [3, 49]: 1.07 µM
Kd [41, 50]: ≥ 20 µM
Kd [32, 49]: 0.288 µM
Kd [5, 50]: ≥ 20 µM
Kd [6, 50]: ≥ 20 µM
Kd [7, 50]: ≥ 20 µM
Kd [8, 50]: ≥ 20 µM
Kd [9, 50]: ≥ 20 µM
Kd [10, 50]: ≥ 20 µM
Kd [11, 49]: 9.04 µM
Kd [12, 50]: ≥ 20 µM
Kd [13, 50]: ≥ 20 µM
Kd [14, 50]: ≥ 20 µM
Kd [16, 50]: ≥ 20 µM
Kd [17, 50]: ≥ 20 µM

VADEIAFGL
Kd ([39]; source organism: Escherichia coli E22): ≤ 0.001 µM

VSFICTTIL
Kd ([18]; source organism: Murid gammaherpesvirus 4): 0.485 µM

YREAGIPVL
Kd [3, 51]: 1 µM
Kd [41, 51]: ≥ 20 µM
Kd [32, 51]: ≥ 20 µM
Kd [5, 51]: ≥ 20 µM
Kd [6, 51]: ≥ 20 µM
Kd [7, 51]: ≥ 20 µM
Kd [9, 51]: ≥ 20 µM
Kd [10, 51]: ≥ 20 µM
Kd [11, 51]: ≥ 20 µM
Kd [12, 51]: ≥ 20 µM
Kd [13, 51]: ≥ 20 µM
Kd [14, 51]: ≥ 20 µM
Kd [15, 51]: ≥ 20 µM
Kd [16, 51]: ≥ 20 µM
Kd [17, 51]: 0.654 µM

YYVMGGAFL
Kd ([22]; source organism: Bacillus anthracis str. A0488): 0.0003 µM

Source: the Immune Epitope Database (IEDB)
